Results from patent US20220119534A1 (DRAGONFLY THERAPEUTICS, published 2022).
Residue numbers refer to the chain shown, from its start. Numbers in names are those of the source. Where “and” joins values, the source holds several entries; their conditions need not be identical. Identical values can stand only once. Values belong to the binder of their own block, whether it stands above or below them.

How the values were obtained:
[1] = molecular target: T1, mFc-hNKG2D (human, UniProt P26718 73-216); assay: SPR Biacore 8K 37 C; mFc-hNKG2D captured on anti-mFc chip, TriNKET as analyte; 1:1 kinetic fit; after 0.02% H2O2 24 h
T1 construct: extracellular domain; Made in house (Dragonfly Tx); the order of tag and ECD follows the name mFc-hNKG2D; also called mFc-tagged human NKG2D; not shown: mouse Fc tag
T1 sequence (looked up): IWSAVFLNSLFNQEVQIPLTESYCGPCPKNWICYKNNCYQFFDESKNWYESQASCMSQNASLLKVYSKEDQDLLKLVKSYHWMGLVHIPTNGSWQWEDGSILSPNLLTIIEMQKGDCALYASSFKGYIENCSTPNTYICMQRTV

[2] = molecular target: T2, human CLEC12A on cells (HL60, PL21, Ba/F3-hCLEC12A) (human, UniProt Q5QGZ9 1-265); assay: flow cytometry, HL60 cells
T2 construct: Endogenous on the AML lines HL60 and PL21; brought into mouse Ba/F3 cells by retroviral transduction; The cell line stands under assay; also called CLL-1
T2 sequence: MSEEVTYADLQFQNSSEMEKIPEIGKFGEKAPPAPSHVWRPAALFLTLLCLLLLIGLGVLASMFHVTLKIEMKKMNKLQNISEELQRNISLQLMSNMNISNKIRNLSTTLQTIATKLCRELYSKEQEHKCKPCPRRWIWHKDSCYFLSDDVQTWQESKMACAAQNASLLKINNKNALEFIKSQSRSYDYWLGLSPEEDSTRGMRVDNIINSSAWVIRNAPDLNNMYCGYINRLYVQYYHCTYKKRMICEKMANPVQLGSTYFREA

[3] = molecular target: T3, Human CLEC12A-His (human, UniProt Q5QGZ9 65-265); assay: SPR; control sample (pH 5 stress study)
T3 construct: Recombinant soluble protein made in house; also called hCLEC12A-His; hCLEC12A; not shown: His tag
T3 sequence: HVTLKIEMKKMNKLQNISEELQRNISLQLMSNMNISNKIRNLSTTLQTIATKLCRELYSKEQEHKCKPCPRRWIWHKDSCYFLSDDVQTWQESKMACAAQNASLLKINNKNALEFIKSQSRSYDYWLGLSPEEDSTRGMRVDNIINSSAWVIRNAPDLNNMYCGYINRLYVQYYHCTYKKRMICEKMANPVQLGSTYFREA

[4] = molecular target: T4, mFc-hNKG2D (human, UniProt P26718 73-216); assay: SPR; control sample (pH 5 stress study)
T4 construct: extracellular domain; Recombinant mFc-tagged NKG2D dimer, made in house; also called human NKG2D; not shown: mouse Fc tag
T4 sequence (looked up): T1 sequence (looked up)

[5] = molecular target: T5, Human CD16a V158 (human, UniProt P08637 17-208, biotinylated); assay: SPR; control sample (pH 5 stress study)
T5 construct: Bought recombinant receptor; also called hCD16a (V158); hFcγRIIIa V158
T5 sequence (P08637 17-208 F176V limits assumed): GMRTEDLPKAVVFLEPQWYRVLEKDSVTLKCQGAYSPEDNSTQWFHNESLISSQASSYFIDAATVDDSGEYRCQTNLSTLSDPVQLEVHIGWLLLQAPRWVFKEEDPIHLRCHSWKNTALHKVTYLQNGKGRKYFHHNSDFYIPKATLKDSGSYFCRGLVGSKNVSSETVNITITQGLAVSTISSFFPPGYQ

[6] = molecular target: T4, mFc-hNKG2D; assay: SPR, 37 C, mFc-hNKG2D captured, kinetic fit; average
[7] = molecular target: T6, Human CD64 (FcγRI) (human, UniProt P12314 16-288, biotinylated); assay: SPR 25C, average
T6 construct: Bought recombinant receptor; also called hFcγRI; Human FcγRI
T6 sequence (P12314 16-288 limits assumed): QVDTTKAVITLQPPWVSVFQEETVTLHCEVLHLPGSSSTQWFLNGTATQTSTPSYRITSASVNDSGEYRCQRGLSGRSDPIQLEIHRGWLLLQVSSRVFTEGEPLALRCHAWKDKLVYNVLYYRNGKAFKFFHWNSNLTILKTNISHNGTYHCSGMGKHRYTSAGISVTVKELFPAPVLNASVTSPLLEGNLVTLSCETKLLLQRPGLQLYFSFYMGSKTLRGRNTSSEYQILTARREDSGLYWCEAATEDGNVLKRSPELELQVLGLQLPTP

[8] = molecular target: T7, Cynomolgus CD64 (FcγRI) (cynomolgus monkey, UniProt A0A2K5U901 33-309, Biotinylated and captured on the CAP chip (p-1094); the biotin site is not stated.); assay: SPR 25C, average
T7 construct: Bought recombinant receptor; also called cFcγRI; Cynomolgus FcγRI; not shown: The vendor's biotinylation and purification tag (ACRO FCA-C82E8)
T7 sequence (A0A2K5U901 entry or part of it limits assumed): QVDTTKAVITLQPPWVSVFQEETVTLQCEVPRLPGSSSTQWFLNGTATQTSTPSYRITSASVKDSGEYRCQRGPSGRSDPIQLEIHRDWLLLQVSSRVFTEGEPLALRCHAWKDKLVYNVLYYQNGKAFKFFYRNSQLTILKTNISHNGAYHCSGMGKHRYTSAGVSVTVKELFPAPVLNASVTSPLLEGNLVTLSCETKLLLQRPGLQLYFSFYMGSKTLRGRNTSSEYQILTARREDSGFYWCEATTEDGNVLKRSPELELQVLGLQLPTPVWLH

[9] = molecular target: T8, mFc-hNKG2D (recombinant mFc-tagged human NKG2D dimer) (human, UniProt P26718 73-216); assay: SPR; after forced oxidation
T8 construct: extracellular domain; Made in house; not shown: mouse Fc tag
T8 sequence (looked up): T1 sequence (looked up)

[10] = molecular target: T9, Human CD16a V158 (FcγRIIIa V158) (human, UniProt P08637 17-208, biotinylated); assay: SPR; after forced oxidation
T9 construct: Bought recombinant receptor; also called hCD16aV; hFcγRIIIa V158
T9 sequence (P08637 17-208 F176V limits assumed): as the sequence (P08637 17-208 F176V limits assumed) above

[11] = molecular target: T10, Human CLEC12A-His (recombinant, K244 WT) (human, UniProt Q5QGZ9 65-265); assay: SPR, two-state fit (kd1); control sample
T10 construct: Made in house (Dragonfly Tx); also called hCLEC12A; hCLEC12A-His; not shown: His tag
T10 sequence: T3 sequence

[12] = molecular target: T11, Human FcRn (human, UniProt P55899 24-297; P61769 21-119); assay: SPR 25C, pH 6.0, FcRn on chip, steady state fit
T11 construct: Bought recombinant receptor; also called hFcRn

[13] = molecular target: T7, Cynomolgus CD64 (FcγRI); assay: SPR 25C, biotinylated cyno CD64 captured on CAP chip
[14] = molecular target: T10, Human CLEC12A-His (recombinant, K244 WT); assay: SPR 37C, AB0089 captured on anti-hFc, two-state fit (kd1)
[15] = molecular target: T12, recombinant human CD32a H131 (human, UniProt P12318 36-218, limits assumed, biotinylated); assay: SPR 25C, steady state, average
T12 construct: also called FcγRIIa H131
T12 sequence (looked up): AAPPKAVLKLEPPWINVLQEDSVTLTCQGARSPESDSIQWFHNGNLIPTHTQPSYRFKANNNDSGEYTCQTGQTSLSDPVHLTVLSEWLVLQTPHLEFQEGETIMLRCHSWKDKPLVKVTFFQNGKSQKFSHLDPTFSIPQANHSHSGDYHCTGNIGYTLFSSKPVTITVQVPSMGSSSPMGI

B1: F3'-1602 TriNKET (bispecific antibody, human IgG1, kappa)
chain: QLQLQESGPGLVKPSETLSLTCTVSGFSLTNYGLHWIRQPPGKCLEWIGVIWSGGKTDYNPSLKSRVTISKDTSKNQFSLKLSSVQAADTAVYYCAKYDYDDSLDYWGQGTLVTVSSGGGGSGGGGSGGGGSGGGGSDIQMTQSPSSLSASVGDRVTITCHASQNINFWLSWYQQKPGKAPKLLIYEASNLHTGVPSRFSGSGSGTRFTLTISSLQPEDIATYYCQQSHSYPLTFGCGTKLEIKGSDKTHTCPPCPAPELLGGPSVFLFPPKPKDTLMISRTPEVTCVVVDVSHEDPEVKFNWYVDGVEVHNAKTKPREEQYNSTYRVVSVLTVLHQDWLNGKEYKCKVSNKALPAPIEKTISKAKGQPREPRVYTLPPCRDELTKNQVSLTCLVKGFYPSDIAVEWESNGQPENNYKTTPPVLVSDGSFTLYSKLTVDKSRWQQGNVFSCSVMHEALHNHYTQKSLSLSPG
heavy: EVQLVESGGGLVKPGGSLRLSCAASGFTFSSYSMNWVRQAPGKGLEWVSSISSSSSYIYYADSVKGRFTISRDNAKNSLYLQMNSLRAEDTAVYYCARGAPIGAAAGWFDPWGQGTLVTVSSASTKGPSVFPLAPSSKSTSGGTAALGCLVKDYFPEPVTVSWNSGALTSGVHTFPAVLQSSGLYSLSSVVTVPSSSLGTQTYICNVNHKPSNTKVDKKVEPKSCDKTHTCPPCPAPELLGGPSVFLFPPKPKDTLMISRTPEVTCVVVDVSHEDPEVKFNWYVDGVEVHNAKTKPREEQYNSTYRVVSVLTVLHQDWLNGKEYKCKVSNKALPAPIEKTISKAKGQPREPQVCTLPPSRDELTENQVSLTCLVKGFYPSDIAVEWESNGQPENNYKTTPPVLDSDGSFFLYSWLTVDKSRWQQGNVFSCSVMHEALHNHYTQKSLSLSPG
light: DIQMTQSPSSVSASVGDRVTITCRASQGISSWLAWYQQKPGKAPKLLIYAASSLQSGVPSRFSGSGSGTDFTLTISSLQPEDFATYYCQQGVSFPRTFGGGTKVEIKRTVAAPSVFIFPPSDEQLKSGTASVVCLLNNFYPREAKVQWKVDNALQSGNSQESVTEQDSKDSTYSLSSTLTLSKADYEKHKVYACEVTHQGLSSPVTKSFNRGEC
notes: Trispecific F3' format: CLEC12A scFv-Fc paired with NKG2D Fab-Fc; Stressed and control samples of the stability studies are the same molecule; also called AB0237
- Kd [1]: 722 nM
- koff [1]: 0.107 s⁻¹
- kon [1]: 148000 M⁻¹ s⁻¹

B4: F3'-1602 TriNKET (other)
chain: B1 chain
heavy: B1 heavy
light: B1 light
notes: CLEC12A scFv-Fc, NKG2D A49MI Fab-Fc, human IgG1 Fc; also called AB0237
- Kd [15]: 900 nM

Second part, the binder after the results:

- EC50 [2]: 0.61 nM
- FOB (fold over background) [2]: 42 fold
- Kd [3]: 1.68 nM
- koff [3]: 0.00129 s⁻¹
- kon [3]: 771000 M⁻¹ s⁻¹
- Kd [4]: 588 nM
- koff [4]: 0.122 s⁻¹
- kon [4]: 208000 M⁻¹ s⁻¹
- Kd [5]: 171 nM
- koff [5]: 0.0199 s⁻¹
- kon [5]: 117000 M⁻¹ s⁻¹
- Kd [6]: 779 nM
B2: AB0192 TriNKET (other)
chain: EVQLVESGGGVVQPGGSLRLSCAASGFTFNAFGMHWVRQAPGKCLEWVAFISSGSTSIYYANTVKGRFTISRDNSKNTLYLQMNSLRAEDTAVYYCARDGYPTGGAMDYWGQGTSVTVSSGGGGSGGGGSGGGGSGGGGSDIQMTQSPSSLSASVGDRVTITCKASQDIYNYLSWFQQKPGKAPKPLIYRANILVSGVPSRFSGSGSGQDYTFTISSLQPEDIATYYCLQFDAFPFTFGCGTKLEIKGSDKTHTCPPCPAPELLGGPSVFLFPPKPKDTLMISRTPEVTCVVVDVSHEDPEVKFNWYVDGVEVHNAKTKPREEQYNSTYRVVSVLTVLHQDWLNGKEYKCKVSNKALPAPIEKTISKAKGQPREPRVYTLPPCRDELTKNQVSLTCLVKGFYPSDIAVEWESNGQPENNYKTTPPVLVSDGSFTLYSKLTVDKSRWQQGNVFSCSVMHEALHNHYTQKSLSLSPG
heavy: B1 heavy
light: B1 light
notes: the condition stands under assay; also called AB0192 Lot AB0192-005

- Kd [7]: 5.1 nM
- koff [7]: 0.00023 s⁻¹
- kon [7]: 46000 M⁻¹ s⁻¹
- Kd [8]: 1.5 nM
- koff [8]: 8.1e-05 s⁻¹
- kon [8]: 55000 M⁻¹ s⁻¹
- Kd [9]: 762 nM
- koff [9]: 0.13 s⁻¹
- kon [9]: 171000 M⁻¹ s⁻¹
- Kd [10]: 320 nM
- koff [10]: 0.0277 s⁻¹
- kon [10]: 86500 M⁻¹ s⁻¹
- koff [11]: 0.0435 s⁻¹
- Kd [12]: 1100 nM
- Kd [13]: 1.5 nM and 1.8 nM and 1.2 nM
- koff [13]: 8.1e-05 s⁻¹ and 9.5e-05 s⁻¹ and 6.6e-05 s⁻¹
- kon [13]: 55000 M⁻¹ s⁻¹ and 54000 M⁻¹ s⁻¹
- koff [14]: 0.0426 s⁻¹ and 0.0449 s⁻¹ and 0.0432 s⁻¹
B3: AB0089 TriNKET (bispecific antibody, human IgG1, kappa)
chain: B1 chain with S53V, K56A, K71V, Y98G, D101G, S103T, R207D, I220F
heavy: B1 heavy
light: B1 light
notes: F3' format heterodimer of three chains; human IgG1 Fc with EW-RVT and Y349C/S354C mutations; also called AB0089 Lot AB0089-002; CLEC12A TriNKET AB0089
